From patent US10941182 (Amgen, dated 2021)
Starred links: 1 amine or outer side, 2 acyl side, 3 side chain; linkers in the order of their positions; H or OH if unused. Non-standard residues stand in square brackets, D forms with d. *: point of attachment. AC4Abu = α-carboxy-4-aminobutyric acid, O=C(C(CCN[*:1])C(=O)[*:3])[*:2]; Oic = O=C(O)[C@@H]1C[C@@H]2CCCC[C@@H]2N1; Phe(4-Cl) = N[C@@H](Cc1ccc(Cl)cc1)C(=O)O; γGlu = O=C(O)[C@H](CCC(=O)[*:2])N[*:1]; 2Nal = N[C@@H](Cc1ccc2ccccc2c1)C(=O)O; NMeR = CN[C@@H](CCCNC(=N)N)C(=O)O; Tridecanoyl = CCCCCCCCCCCCC(=O)*; Cha = N[C@@H](CC1CCCCC1)C(=O)O; αMeL = CC(C)C[C@](C)(N)C(=O)O; Tle = CC(C)(C)[C@H](N)C(=O)O; αMeP = C[C@@]1(C(=O)O)CCCN1; β3hP = O=C(O)C[C@@H]1CCCN1; β3hS = N[C@@H](CO)CC(=O)O; Nle = CCCC[C@H](N)C(=O)O; AEEA = NCCOCCOCC(=O)O; Aib = CC(C)(N)C(=O)O; BLeu = β-leucine

T1: rat APJ receptor (rat, UniProt Q9JHG3 1-377)
T1 sequence (looked up): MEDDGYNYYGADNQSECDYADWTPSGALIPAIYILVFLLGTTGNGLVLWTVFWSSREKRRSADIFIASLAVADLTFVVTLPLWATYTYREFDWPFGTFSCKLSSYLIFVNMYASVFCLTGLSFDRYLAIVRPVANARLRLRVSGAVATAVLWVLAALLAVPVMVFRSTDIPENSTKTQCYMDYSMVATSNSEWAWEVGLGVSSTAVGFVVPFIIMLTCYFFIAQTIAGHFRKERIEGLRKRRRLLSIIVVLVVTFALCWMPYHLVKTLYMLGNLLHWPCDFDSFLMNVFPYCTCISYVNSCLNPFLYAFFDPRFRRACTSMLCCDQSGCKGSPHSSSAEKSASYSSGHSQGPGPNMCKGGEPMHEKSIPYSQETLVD

T2: human APJ receptor (human, UniProt P35414 1-380)
T2 sequence (looked up): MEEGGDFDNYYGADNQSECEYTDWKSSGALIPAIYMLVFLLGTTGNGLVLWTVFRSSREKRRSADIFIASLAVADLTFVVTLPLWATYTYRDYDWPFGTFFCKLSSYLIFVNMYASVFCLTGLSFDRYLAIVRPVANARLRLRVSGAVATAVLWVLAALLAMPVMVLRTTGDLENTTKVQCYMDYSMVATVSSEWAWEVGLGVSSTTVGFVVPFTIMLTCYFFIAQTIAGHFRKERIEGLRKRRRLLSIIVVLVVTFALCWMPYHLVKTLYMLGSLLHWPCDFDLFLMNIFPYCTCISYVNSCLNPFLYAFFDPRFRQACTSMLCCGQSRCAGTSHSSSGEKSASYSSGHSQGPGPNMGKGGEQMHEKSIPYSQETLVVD


Tests used:
rat APJ receptor = target: T1, rat APJ receptor; assay: cell-based or functional assay
human APJ receptor = target: T2, human APJ receptor; assay: cell-based or functional assay

Binder | EC50 Rat APJ Receptor (GTPγS assay) (rat APJ receptor) [pM] | EC50 Human APJ Receptor (GTPγS assay) (human APJ receptor) [pM]
Tridecanoyl-[γGlu][AEEA][AEEA][dQ]RP[NMeR][Cha][β3hS]HKG[Oic][Nle][Aib][Phe(4-Cl)]-OH (SMILES CCCCCCCCCCCCC(=O)N[C@@H](CCC(=O)NCCOCCOCC(=O)NCCOCCOCC(=O)N[C@H](CCC(N)=O)C(=O)N[C@@H](CCCNC(=N)N)C(=O)N1CCC[C@H]1C(=O)N(C)[C@@H](CCCNC(=N)N)C(=O)N[C@@H](CC1CCCCC1)C(=O)N[C@@H](CO)CC(=O)N[C@@H](Cc1c[nH]cn1)C(=O)N[C@@H](CCCCN)C(=O)NCC(=O)N1[C@H](C(=O)N[C@@H](CCCC)C(=O)NC(C)(C)C(=O)N[C@@H](Cc2ccc(Cl)cc2)C(=O)O)C[C@@H]2CCCC[C@@H]21)C(=O)O) [Apelin polypeptide SEQ ID NO: 500] | 3140 | 588
Tridecanoyl-[AC4Abu][AEEA][AEEA]QRP[NMeR][Cha]SHKG[Aib][Nle]P[Phe(4-Cl)]-OH (SMILES CCCCCCCCCCCCC(=O)NCCC(C(=O)O)C(=O)NCCOCCOCC(=O)NCCOCCOCC(=O)N[C@@H](CCC(N)=O)C(=O)N[C@@H](CCCNC(=N)N)C(=O)N1CCC[C@H]1C(=O)N(C)[C@@H](CCCNC(=N)N)C(=O)N[C@@H](CC1CCCCC1)C(=O)N[C@@H](CO)C(=O)N[C@@H](Cc1c[nH]cn1)C(=O)N[C@@H](CCCCN)C(=O)NCC(=O)NC(C)(C)C(=O)N[C@@H](CCCC)C(=O)N1CCC[C@H]1C(=O)N[C@@H](Cc1ccc(Cl)cc1)C(=O)O) [Apelin polypeptide SEQ ID NO: 414] | 3780 | 3390
XXXQRPRLSHKGPXPF ({TDA}[AC4Abu][Aeea][Aeea]QRP[NMeArg][BhLeu]SHKGP[Nle]P[4-Cl-F]{COOH}) [Apelin polypeptide SEQ ID NO: 422] | 196 | 169
Tridecanoyl-[γGlu][AEEA][AEEA][dQ]RP[NMeR][Cha]SAKG[Oic][Nle][Aib][Phe(4-Cl)]-OH (SMILES CCCCCCCCCCCCC(=O)N[C@@H](CCC(=O)NCCOCCOCC(=O)NCCOCCOCC(=O)N[C@H](CCC(N)=O)C(=O)N[C@@H](CCCNC(=N)N)C(=O)N1CCC[C@H]1C(=O)N(C)[C@@H](CCCNC(=N)N)C(=O)N[C@@H](CC1CCCCC1)C(=O)N[C@@H](CO)C(=O)N[C@@H](C)C(=O)N[C@@H](CCCCN)C(=O)NCC(=O)N1[C@H](C(=O)N[C@@H](CCCC)C(=O)NC(C)(C)C(=O)N[C@@H](Cc2ccc(Cl)cc2)C(=O)O)C[C@@H]2CCCC[C@@H]21)C(=O)O) [Apelin polypeptide SEQ ID NO: 530] | 974 | 380
Tridecanoyl-[γGlu][AEEA][AEEA][dQ]RP[NMeR][Cha]SHKG[αMeP][Nle][β3hP][Phe(4-Cl)]-OH (SMILES CCCCCCCCCCCCC(=O)N[C@@H](CCC(=O)NCCOCCOCC(=O)NCCOCCOCC(=O)N[C@H](CCC(N)=O)C(=O)N[C@@H](CCCNC(=N)N)C(=O)N1CCC[C@H]1C(=O)N(C)[C@@H](CCCNC(=N)N)C(=O)N[C@@H](CC1CCCCC1)C(=O)N[C@@H](CO)C(=O)N[C@@H](Cc1c[nH]cn1)C(=O)N[C@@H](CCCCN)C(=O)NCC(=O)N1CCC[C@@]1(C)C(=O)N[C@@H](CCCC)C(=O)N1CCC[C@H]1CC(=O)N[C@@H](Cc1ccc(Cl)cc1)C(=O)O)C(=O)O) [Apelin polypeptide SEQ ID NO: 545] | 3700 | 1300
XXXQRPRLSHKGXXPF ({TDA}[AC4Abu][Aeea][Aeea]qRP[NMeArg][aMeLeu]SHKG[Pip][Nle][aMePro][4-Cl-F]{COOH}) [Apelin polypeptide SEQ ID NO: 555] | 422 | 102
XXXQRPRLSHKGXXPF ({TDA}[AC4Abu][Aeea][Aeea]QRP[NMeArg][aMeLeu]SHKG[Pip][Nle][aMePro][4-Cl-F]{COOH}) [Apelin polypeptide SEQ ID NO: 605] | 298 | 83.2
Tridecanoyl-[γGlu][AEEA][AEEA]QRP[NMeR][Cha]S[Tle]KG[Oic][Nle]P[Phe(4-Cl)]-OH (SMILES CCCCCCCCCCCCC(=O)N[C@@H](CCC(=O)NCCOCCOCC(=O)NCCOCCOCC(=O)N[C@@H](CCC(N)=O)C(=O)N[C@@H](CCCNC(=N)N)C(=O)N1CCC[C@H]1C(=O)N(C)[C@@H](CCCNC(=N)N)C(=O)N[C@@H](CC1CCCCC1)C(=O)N[C@@H](CO)C(=O)N[C@H](C(=O)N[C@@H](CCCCN)C(=O)NCC(=O)N1[C@H](C(=O)N[C@@H](CCCC)C(=O)N2CCC[C@H]2C(=O)N[C@@H](Cc2ccc(Cl)cc2)C(=O)O)C[C@@H]2CCCC[C@@H]21)C(C)(C)C)C(=O)O) [Apelin polypeptide SEQ ID NO: 438] | 1280 | 1490
Tridecanoyl-[γGlu][AEEA][AEEA]QRP[NMeR][αMeL]SHKG[Oic][Nle][Phe(4-Cl)]-OH (SMILES CCCCCCCCCCCCC(=O)N[C@@H](CCC(=O)NCCOCCOCC(=O)NCCOCCOCC(=O)N[C@@H](CCC(N)=O)C(=O)N[C@@H](CCCNC(=N)N)C(=O)N1CCC[C@H]1C(=O)N(C)[C@@H](CCCNC(=N)N)C(=O)N[C@@](C)(CC(C)C)C(=O)N[C@@H](CO)C(=O)N[C@@H](Cc1c[nH]cn1)C(=O)N[C@@H](CCCCN)C(=O)NCC(=O)N1[C@H](C(=O)N[C@@H](CCCC)C(=O)N[C@@H](Cc2ccc(Cl)cc2)C(=O)O)C[C@@H]2CCCC[C@@H]21)C(=O)O) [Apelin polypeptide SEQ ID NO: 389] | 365 | 196
Tridecanoyl-[γGlu][AEEA][AEEA][dQ]RP[NMeR][αMeL]SHKG[Oic][Nle][β3hP][Phe(4-Cl)]-OH (SMILES CCCCCCCCCCCCC(=O)N[C@@H](CCC(=O)NCCOCCOCC(=O)NCCOCCOCC(=O)N[C@H](CCC(N)=O)C(=O)N[C@@H](CCCNC(=N)N)C(=O)N1CCC[C@H]1C(=O)N(C)[C@@H](CCCNC(=N)N)C(=O)N[C@@](C)(CC(C)C)C(=O)N[C@@H](CO)C(=O)N[C@@H](Cc1c[nH]cn1)C(=O)N[C@@H](CCCCN)C(=O)NCC(=O)N1[C@H](C(=O)N[C@@H](CCCC)C(=O)N2CCC[C@H]2CC(=O)N[C@@H](Cc2ccc(Cl)cc2)C(=O)O)C[C@@H]2CCCC[C@@H]21)C(=O)O) [Apelin polypeptide SEQ ID NO: 554] | 2830 | 867
Tridecanoyl-[γGlu][AEEA][AEEA]QRP[NMeR][BLeu]SHKG[Oic][Nle]P[Phe(4-Cl)]-OH [Apelin polypeptide SEQ ID NO: 391] | 1500 | 565
Tridecanoyl-[γGlu][AEEA][AEEA][dQ]RP[NMeR][Cha]SHKG[αMeP][Nle][Aib][Phe(4-Cl)]-OH (SMILES CCCCCCCCCCCCC(=O)N[C@@H](CCC(=O)NCCOCCOCC(=O)NCCOCCOCC(=O)N[C@H](CCC(N)=O)C(=O)N[C@@H](CCCNC(=N)N)C(=O)N1CCC[C@H]1C(=O)N(C)[C@@H](CCCNC(=N)N)C(=O)N[C@@H](CC1CCCCC1)C(=O)N[C@@H](CO)C(=O)N[C@@H](Cc1c[nH]cn1)C(=O)N[C@@H](CCCCN)C(=O)NCC(=O)N1CCC[C@@]1(C)C(=O)N[C@@H](CCCC)C(=O)NC(C)(C)C(=O)N[C@@H](Cc1ccc(Cl)cc1)C(=O)O)C(=O)O) [Apelin polypeptide SEQ ID NO: 498] | 138 | 29.9
Tridecanoyl-[γGlu][AEEA][AEEA]QRP[NMeR][αMeL]SHKGP[Nle]P[2Nal]-OH (SMILES CCCCCCCCCCCCC(=O)N[C@@H](CCC(=O)NCCOCCOCC(=O)NCCOCCOCC(=O)N[C@@H](CCC(N)=O)C(=O)N[C@@H](CCCNC(=N)N)C(=O)N1CCC[C@H]1C(=O)N(C)[C@@H](CCCNC(=N)N)C(=O)N[C@@](C)(CC(C)C)C(=O)N[C@@H](CO)C(=O)N[C@@H](Cc1c[nH]cn1)C(=O)N[C@@H](CCCCN)C(=O)NCC(=O)N1CCC[C@H]1C(=O)N[C@@H](CCCC)C(=O)N1CCC[C@H]1C(=O)N[C@@H](Cc1ccc2ccccc2c1)C(=O)O)C(=O)O) [Apelin polypeptide SEQ ID NO: 472] | 92 | 20.4
Tridecanoyl-[γGlu][AEEA][AEEA][dQ]RP[NMeR][Cha]SHK[Tle][Oic][Nle][Aib][Phe(4-Cl)]-OH (SMILES CCCCCCCCCCCCC(=O)N[C@@H](CCC(=O)NCCOCCOCC(=O)NCCOCCOCC(=O)N[C@H](CCC(N)=O)C(=O)N[C@@H](CCCNC(=N)N)C(=O)N1CCC[C@H]1C(=O)N(C)[C@@H](CCCNC(=N)N)C(=O)N[C@@H](CC1CCCCC1)C(=O)N[C@@H](CO)C(=O)N[C@@H](Cc1c[nH]cn1)C(=O)N[C@@H](CCCCN)C(=O)N[C@H](C(=O)N1[C@H](C(=O)N[C@@H](CCCC)C(=O)NC(C)(C)C(=O)N[C@@H](Cc2ccc(Cl)cc2)C(=O)O)C[C@@H]2CCCC[C@@H]21)C(C)(C)C)C(=O)O) [Apelin polypeptide SEQ ID NO: 543] | 1400 | 583
Tridecanoyl-[γGlu][AEEA][AEEA]QRP[NMeR][Cha]SH[AMeK]G[Oic][Nle]P[Phe(4-Cl)]-OH [Apelin polypeptide SEQ ID NO: 444] | 10100 | 5600
